# Data from the Human Domainome abundance scans (Beltran et al. 2025).
# ± gives the uncertainty stated by the source.
# B1: POU domain, class 4, transcription factor 1, residues 266 to 347; numbered along this chain, Q01851 (parent)
# chain: RELEAFAERFKQRRIKLGVTQADVGSALANLKIPGVGSLSQSTICRFESLTLSHNNMIALKPILQAWLEEAEGAQREKMNKP
# Variants of: B1
# Assay: abundance fitness (aPCA) (normalised: wild type 0, dead -1); higher = more abundant; growth selection in yeast, the domain comes from the species named
# Conditions: Homo sapiens
row,Variant,abundance fitness
1,S42I,-0.034 ± 0.093
2,S42T,0.029 ± 0.082
3,K16A,0.085 ± 0.034
4,K16S,0.013 ± 0.027
5,K16C,-0.004 ± 0.055
6,K16H,-0.029 ± 0.034
7,K16I,-0.104 ± 0.037
8,E2T,-0.195 ± 0.039
9,E2A,-0.267 ± 0.028
10,E2M,-0.17 ± 0.036
11,E2V,-0.345 ± 0.029
12,E2G,-0.102 ± 0.023
13,Q41V,-0.054 ± 0.04
14,Q41F,0.084 ± 0.095
15,Q41A,0.053 ± 0.044
16,G73A,0.015 ± 0.05
17,G73I,0.121 ± 0.17
18,I44L,-0.153 ± 0.058
19,L50W,-0.233 ± 0.052
20,I58C,-0.094 ± 0.093
21,I58N,0.021 ± 0.1
22,I58W,-0.107 ± 0.057
23,A5I,0.184 ± 0.14
24,A5N,0.106 ± 0.16

row,Variant,abundance fitness
1,L64V,-0.336 ± 0.059
2,L64N,-0.431 ± 0.21
3,L64F,-0.337 ± 0.34
4,L64E,-0.709 ± 0.12
5,L64S,-0.793 ± 0.12
6,G35M,-0.175 ± 0.22
7,G35I,0.268 ± 0.49
8,K78G,-0.036 ± 0.045
9,K78Y,-0.106 ± 0.23
10,K78I,-0.026 ± 0.09
11,L39T,-0.138 ± 0.085
12,L39H,-0.113 ± 0.26
13,S40Y,-0.307 ± 0.24
14,S40H,-0.159 ± 0.16
15,S40F,-0.263 ± 0.11
16,S40C,-0.017 ± 0.057
17,P82A,0.086 ± 0.079
18,P82Q,0.01 ± 0.071
19,A27E,-0.035 ± 0.049
20,A27I,-0.245 ± 0.17
21,L68W,-0.626 ± 0.1
22,Q75W,-0.077 ± 0.045
23,Q21N,-0.516 ± 0.38
24,Q21W,-0.141 ± 0.063

row,Variant,abundance fitness
1,V36N,-0.327 ± 0.19
2,W67E,-0.806 ± 0.13
3,W67Y,-0.175 ± 0.18
4,P62N,-0.286 ± 0.13
5,A71T,0.062 ± 0.086
6,K32W,-0.176 ± 0.071
7,K32P,-0.204 ± 0.13
8,V19K,0.003 ± 0.061
9,V19L,-0.016 ± 0.049
10,A7M,-0.395 ± 0.042
11,A74Q,-0.029 ± 0.034
12,A74D,-0.027 ± 0.039
13,A74Y,0.002 ± 0.046
14,H54N,-0.075 ± 0.084
15,H54S,0.057 ± 0.043
16,H54K,0.007 ± 0.066
17,N80S,0.051 ± 0.04
18,N80A,0.117 ± 0.039
19,A66G,-0.029 ± 0.022
20,A66Q,-0.046 ± 0.035
21,T51E,0.032 ± 0.07
22,L31Q,-0.04 ± 0.038
23,L31C,-0.057 ± 0.037
24,L31P,-0.26 ± 0.045

row,Variant,abundance fitness
1,L31D,-0.152 ± 0.046
2,L31I,-0.028 ± 0.052
3,T43S,-0.109 ± 0.061
4,G25Q,-0.001 ± 0.065
5,G25D,0.037 ± 0.093
6,G25T,-0.012 ± 0.076
7,P34E,0.027 ± 0.033
8,I33A,-0.139 ± 0.03
9,I33E,-0.22 ± 0.033
10,G37V,-0.093 ± 0.028
11,G37F,-0.149 ± 0.045
12,G37K,-0.074 ± 0.041
13,G37M,-0.134 ± 0.037
14,E48M,-1.23 ± 0.19
15,E48V,-1.04 ± 0.072
16,E48P,-0.856 ± 0.076
17,E48H,-1.12 ± 0.12
18,E48I,-1.28 ± 0.17
19,L28V,-0.074 ± 0.025
20,L28M,-0.09 ± 0.037
21,K11I,-0.293 ± 0.15
22,K11F,-0.627 ± 0.2
23,K11N,-0.422 ± 0.22
24,A22E,0.043 ± 0.098

row,Variant,abundance fitness
1,A22G,-0.017 ± 0.056
2,A22V,-0.242 ± 0.095
3,A22D,-0.121 ± 0.15
4,Q65R,-0.162 ± 0.023
5,Q65A,-0.041 ± 0.028
6,L60N,-0.223 ± 0.26
7,R1F,0.028 ± 0.12
8,R1W,-0.134 ± 0.033
9,S38V,0.05 ± 0.2
10,R13A,-0.026 ± 0.035
11,A29E,0.036 ± 0.11
12,S49F,-0.632 ± 0.065
13,I63R,-0.154 ± 0.04
14,R76K,-0.006 ± 0.039
15,R76T,0.008 ± 0.034
16,F6K,-1 ± 0.086
17,F6R,-0.987 ± 0.042
18,V24N,-0.531 ± 0.27
19,V24A,-0.241 ± 0.055
20,V24E,-0.679 ± 0.088
21,N30Y,0.033 ± 0.34
22,E4K,0.056 ± 0.063
23,R14Y,-0.884 ± 0.098
24,K61M,-0.1 ± 0.062

row,Variant,abundance fitness
1,K61F,-0.349 ± 0.11
2,K61H,-0.265 ± 0.18
3,K61L,-0.198 ± 0.046
4,M57S,-0.309 ± 0.053
5,F10N,-0.822 ± 0.093
6,F10D,-0.804 ± 0.076
7,F10S,-0.914 ± 0.055
8,F10P,-0.908 ± 0.08
9,F47P,-0.717 ± 0.19
10,F47Q,-1 ± 0.34
11,L17Y,-0.33 ± 0.038
12,L17G,-0.802 ± 0.082
13,L17N,-0.455 ± 0.05
14,S26A,0.011 ± 0.045
15,S26R,-0.004 ± 0.039
16,S26V,-0.049 ± 0.044
17,S26N,0.285 ± 0.2
18,L3I,-0.02 ± 0.1
19,L3E,-0.247 ± 0.043
20,L3D,-0.366 ± 0.099
21,L3N,-0.287 ± 0.12
22,L3H,-0.203 ± 0.12
23,Q12L,-0.078 ± 0.027
24,Q12D,-0.027 ± 0.047

row,Variant,abundance fitness
1,Q12Y,-0.13 ± 0.047
2,E69L,-0.036 ± 0.042
3,E69F,-0.174 ± 0.12
4,E69K,-0.036 ± 0.06
5,N56E,0.032 ± 0.044
6,N56M,0.078 ± 0.075
7,N56C,0.145 ± 0.092
8,N56Q,0.083 ± 0.063
9,L52H,-0.234 ± 0.2
10,E8T,-0.078 ± 0.094
11,E8V,0.015 ± 0.057
12,K81W,0.027 ± 0.056
13,K81G,0.021 ± 0.048
14,K81F,0.198 ± 0.27
15,M79W,-0.015 ± 0.026
16,M79L,0.001 ± 0.024
17,M79K,0.039 ± 0.035
18,I15L,-0.022 ± 0.028
19,I15F,-0.322 ± 0.039
20,I15C,-0.048 ± 0.049
21,E70I,-0.161 ± 0.053
22,E70P,-0.657 ± 0.052
23,E70Y,-0.145 ± 0.046
